For the first test, the target named is T1, HLA-A*24 (human).
T1 construct: MHC monomer made peptide-receptive by UV cleavage of a UV-sensitive ligand; also called peptide-receptive MHC class I monomer
Kind of test: UV peptide-exchange ELISA; +++ = yield >50%. For orientation: In an ELISA, binding on a coated surface is turned into a signal by an enzyme label.
In the case of TYLSIFDQL [TYLSIFDQL (SEQ ID NO: 60)], the peptide exchange yield was 50 to 75%. Consider RWLPQKNAAQF [RWLPQKNAAQF (SEQ ID NO: 387)], for which the peptide exchange yield is 50 to 75%. Consider KQMEDGHTLF [KQMEDGHTLF (SEQ ID NO: 36)], for which the peptide exchange yield lay in the range of 50 to 75%.

For the molecule SYEVRSTF [SYEVRSTF (SEQ ID NO: 21)], the peptide exchange yield lay within 50 to 75%. Consider LLIKLLQTF [LLIKLLQTF (SEQ ID NO: 54)], for which the peptide exchange yield lay within 50 to 75%.

VQQWSVAVF [VQQWSVAVF (SEQ ID NO: 7)] had a peptide exchange yield of 50 to 75%.

As for QYEPPSAPSTTF [QYEPPSAPSTTF (SEQ ID NO: 40)], the peptide exchange yield fell in the range of 50 to 75%. As for VFQEKHHVI [VFQEKHHVI (SEQ ID NO: 380)], the peptide exchange yield lay within 50 to 75%. Molecule IYHSHHPTL [IYHSHHPTL (SEQ ID NO: 382)] had a peptide exchange yield of 50 to 75%.

For the molecule TYNPDFSSL [TYNPDFSSL (SEQ ID NO: 16)], the peptide exchange yield was in the range of 50 to 75%. On the same count and under the same terms, to WYGWHFPEL [WYGWHFPEL (SEQ ID NO: 76)] belongs 50 to 75%. The same measure, in the same setting: the figure for KSSVIASLLF [KSSVIASLLF (SEQ ID NO: 33)] is 50 to 75%; for SYSSCYSF [SYSSCYSF (SEQ ID NO: 14)] it is 50 to 75%. The same measure, in the same setting: the figure for RYKQDVERF [RYKQDVERF (SEQ ID NO: 383)] is 50 to 75%; for YYADKKTFIVL [YYADKKTFIVL (SEQ ID NO: 17)] it is 50 to 75%.

On to SYIGLPLTL [SYIGLPLTL (SEQ ID NO: 73)], for which the peptide exchange yield lay in the range of 50 to 75%. On the same count and under the same terms, the figure for NYAENILTL [NYAENILTL (SEQ ID NO: 61)] is 50 to 75%. The same measure, in the same setting: the figure for NYIVPDKQIF [NYIVPDKQIF (SEQ ID NO: 379)] is 50 to 75%.

The target in another test is T2, HLA-B*07 (human).
T2 construct: MHC monomer made peptide-receptive by UV cleavage of a UV-sensitive ligand; also called peptide-receptive MHC class I monomer
Kind of test: UV peptide-exchange ELISA; +++ = yield >50%.
Molecule RIREHVPQL [RIREHVPQL (SEQ ID NO: 245)] returned a peptide exchange yield of 50 to 75%. With RPMQQARAQL [RPMQQARAQL (SEQ ID NO: 459)], the peptide exchange yield is 50 to 75%. The same measure, in the same setting: to SPARASPAL [SPARASPAL (SEQ ID NO: 279)] belongs 50 to 75%; to APSARVGVC [APSARVGVC (SEQ ID NO: 261)], 50 to 75%. Same read-out and setting: to RPAATAVISL [RPAATAVISL (SEQ ID NO: 237)] belongs 50 to 75%; to VPLPAGGGTVL [VPLPAGGGTVL (SEQ ID NO: 230)], 50 to 75%; to LPRAGGAFL [LPRAGGAFL (SEQ ID NO: 276)], 50 to 75%. The same measure, in the same setting: to VPISEEGTPVL [VPISEEGTPVL (SEQ ID NO: 280)] belongs 50 to 75%; to MPQIETRVIL [MPQIETRVIL (SEQ ID NO: 282)], 50 to 75%; to MPLPWSLALP [MPLPWSLALP (SEQ ID NO: 271)], 50 to 75%. YPQHPGLNA [YPQHPGLNA (SEQ ID NO: 260)]: the peptide exchange yield lay in the range of 50 to 75%. Same read-out and setting: the figure for SPQRLRGLLL [SPQRLRGLLL (SEQ ID NO: 292)] is 50 to 75%. APREEQQRSL [APREEQQRSL (SEQ ID NO: 287)] had a peptide exchange yield of 50 to 75%. Same read-out and setting: to APHPPLSVV [APHPPLSVV (SEQ ID NO: 275)] belongs 50 to 75%. In turn, NPFYPEVEL [NPFYPEVEL (SEQ ID NO: 222)] registered a peptide exchange yield of 50 to 75%. TPYQEHVAL [TPYQEHVAL (SEQ ID NO: 274)] came in with a peptide exchange yield of 50 to 75%. Still for that read-out and setting: to VPLPAGGGTV [VPLPAGGGTV (SEQ ID NO: 229)] belongs 50 to 75%; to RALLARLLL [RALLARLLL (SEQ ID NO: 247)], 50 to 75%. As for RVIDAVRFTL [RVIDAVRFTL (SEQ ID NO: 253)], the peptide exchange yield was in the range of 50 to 75%.

The target in another test is T3, HLA-A*03 (human).
T3 construct: MHC monomer made peptide-receptive by UV cleavage of a UV-sensitive ligand; also called peptide-receptive MHC class I monomer
Kind of test: UV peptide-exchange ELISA; ++++ = yield >75%.
RTMSEAALVRK [RTMSEAALVRK (SEQ ID NO: 214)] showed a peptide exchange yield above 75%.

On to RIADIFVKK [RIADIFVKK (SEQ ID NO: 455)], for which the peptide exchange yield is above 75%. Same read-out and setting: the figure for MMFSGPQILKL [MMFSGPQILKL (SEQ ID NO: 215)] is above 75%; for RLRSSLVFK [RLRSSLVFK (SEQ ID NO: 219)] it is above 75%; for KAYEQVMHY [KAYEQVMHY (SEQ ID NO: 212)] it is above 75%.

On to SINKPTSER [SINKPTSER (SEQ ID NO: 457)], for which the peptide exchange yield was above 75%. The same measure, in the same setting: the figure for RILNQILYY [RILNQILYY (SEQ ID NO: 217)] is above 75%; for AINTSIKNK [AINTSIKNK (SEQ ID NO: 453)] it is above 75%. On to TVNPVAIHK [TVNPVAIHK (SEQ ID NO: 211)], for which the peptide exchange yield was above 75%. Consider GIADFVLKY [GIADFVLKY (SEQ ID NO: 458)], for which the peptide exchange yield was above 75%. Still for that read-out and setting: to SMFTAILKK [SMFTAILKK (SEQ ID NO: 456)] belongs above 75%; to KVYTPSISK [KVYTPSISK (SEQ ID NO: 454)], above 75%.

Another test concerns the target T4, HLA-B*08 (human).
T4 construct: MHC monomer made peptide-receptive by UV cleavage of a UV-sensitive ligand; also called peptide-receptive MHC class I monomer
Kind of test: UV peptide-exchange ELISA; ++++ = yield >75%.
ILKVKVGL [ILKVKVGL (SEQ ID NO: 306)] returned a peptide exchange yield above 75%. Still for that read-out and setting: the figure for ELKKLYCQI [ELKKLYCQI (SEQ ID NO: 304)] is above 75%; for ILLPRTVSL [ILLPRTVSL (SEQ ID NO: 307)] it is above 75%. Same read-out and setting: the figure for ELKKKEYEEL [ELKKKEYEEL (SEQ ID NO: 313)] is above 75%; for ALKLRVAVL [ALKLRVAVL (SEQ ID NO: 305)] it is above 75%. Still for that read-out and setting: the figure for MPMQDIKM [MPMQDIKM (SEQ ID NO: 296)] is above 75%; for DIYQRALNL [DIYQRALNL (SEQ ID NO: 315)] it is above 75%.

On to YMHKLLVL [YMHKLLVL (SEQ ID NO: 301)], for which the peptide exchange yield is above 75%. On to AIISRLVAL [AIISRLVAL (SEQ ID NO: 314)], for which the peptide exchange yield was above 75%. Same read-out and setting: the figure for EAMLRNKEL [EAMLRNKEL (SEQ ID NO: 312)] is above 75%; for LPPKKFVL [LPPKKFVL (SEQ ID NO: 310)] it is above 75%. On the same count and under the same terms, the figure for LVKVKVLL [LVKVKVLL (SEQ ID NO: 317)] is above 75%; for MAQFKEISL [MAQFKEISL (SEQ ID NO: 299)] it is above 75%. Consider EIRIRVVQM [EIRIRVVQM (SEQ ID NO: 311)], for which the peptide exchange yield is above 75%.

The molecule RAQLKLVAL [RAQLKLVAL (SEQ ID NO: 297)] registered a peptide exchange yield above 75%. MLKQKVEEL [MLKQKVEEL (SEQ ID NO: 308)] displayed a peptide exchange yield above 75%.

LPFPKFTV [LPFPKFTV (SEQ ID NO: 303)]: the peptide exchange yield was above 75%.

The values are drawn from patent US11352401.
